{
  "source": "patent US20260115299A1",
  "about": "“CALSEQUESTRIN-BASED METAL ION REACTIVE PARTICLE AND USES THEREOF” (TOOLBIO. CO.,LTD., priority 2022, published 2026)",
  "molecules": {"B1": {"name": "CSQ-KGF: fusion protein of human calsequestrin CSQ1 (SEQ ID No. 1) and KGF (SEQ ID No. 12) (protein)", "chain": "QEGLDFPEYDGVDRVINVNAKNYKNVFKKYEVLALLYHEPPEDDKASQRQFEMEELILELAAQVLEDKGVGFGLVDSEKDAAVAKKLGLTEVDSMYVFKGDEVIEYDGEFSADTIVEFLLDVLEDPVELIEGERELQAFENIEDEIKLIGYFKSKDSEHYKAFEDAAEEFHPYIPFFATFDSKVAKKLTLKLNEIDFYEAFMEEPVTIPDKPNSEEEIVNFVEEHRRSTLRKLKPESMYETWEDDMDGIHIVAFAEEADPDGFEFLETLKAVAQDNTENPDLSIIWIDPDDFPLLVPYWEKTFDIDLSAPQIGVVNVTDADSVWMEMDDEEDLPSAEELEDWLEDVLEGEINTEDDDDDDDDMCNDMTPEQMATNVNCSSPERHTRSYDYMEGGDIRVRRLFCRTQWYLRIDKRGKVKGTQEMKNNYNIMEIRTVAVGIVAIKGVESEFYLAMNKEGKLYAKKECNEDCNFKELILENHYNTYASAKWTHNGGEMFVALNQKGIPVRGKKTKKEQKTAHFLPMAIT"}},
  "key": {"HaCaT cells [1]": {"system": "HaCaT cells", "test": "In vitro proliferation test (XTT)", "assay_type": "cell-based", "conditions": "2.5 nM, 2 days, compared with native KGF", "experimental": "HaCaT cells in 96-well plates were aliquoted at a specific cell/well and incubated at 37° C. in a 5% CO2 incubator with 10% FBS and 1% P/S-DMEM for one day. Starvation was performed with FBS Free DMEM for one day. After washing twice with DPBS, CSQ-KGF, CSQ, and KGF were added to FBS-free DMEM at a concentration of 2.5 nM, and the sample was divided so that the total volume became 200 ? . After incubation in an incubator for 2 days, XTT cell availability kit reagents were aliquoted, and then 450 nm absorbance was determined with a microplate reader."}, "HaCaT cells [2]": {"system": "HaCaT cells", "test": "In vitro migration test (scratch)", "assay_type": "cell-based", "conditions": "10 nM, 24-hour intervals, compared with native KGF", "experimental": "HaCaT cells were aliquoted into 24-well plates at a specific cell/well and incubated at 37° C. in a 5% CO2 incubator with 10% FBS and 1% P/S-DMEM for one day. Starvation was performed with FBS Free DMEM for one day. Cells were scratched in a straight line using a 1000 ? pipette tip. After washing twice with DPBS, CSQ-KGF, CSQ, and KGF were added to FBS Free DMEM at a concentration of 10 nM, and the sample was divided so that the total volume became 500 ? . While culturing in a 5% CO2 incubator at 37° C. scratches were observed using a phase-contrast microscope at 24-hour intervals from […], and photographs were taken. The extent of wound closure was compared by analyzing the scratch area of the captured images using ImageJ."}},
  "data": [
    {"molecule": "B1", "values": [
      {"measurement": "proliferation efficacy (450 nm absorbance, XTT)", "setting": "HaCaT cells [1]", "value": "same efficacy as native KGF"},
      {"measurement": "migration efficacy (extent of wound closure, scratch area)", "setting": "HaCaT cells [2]", "value": "same efficacy as native KGF"}
    ]}
  ]
}
